B1: sp¦P20645¦MPRD_HUMAN (protein, UniProt P20645 27-277, looked up)
Cation-dependent …: TEEKTCDLVGEKGKESEKELALVKRLKPLFNKSFESTVGQGSDTYIYIFRVCREAGNHTSGAGLVQINKSNGKETVVGRLNETHIFNGSNWIMLIYKGGDEYDNHCGKEQRRAVVMISCNRHTLADNFNPVSEERGKVQDCFYLFEMDSSLACSPEISHLSVGSILLVTFASLVAVYVVGGFLYQRLVVGAKGMEQFPHLAFWQDLGNLVADGCDFVCRSKPRNVPAAYRGVGDDQLGEESEERDDHLLPM
B2: sp¦Q92973¦TNPO1_HUMAN (protein, UniProt Q92973 1-898, looked up)
Transportin-1: MVWDRQTKMEYEWKPDEQGLQQILQLLKESQSPDTTIQRTVQQKLEQLNQYPDFNNYLIFVLTKLKSEDEPTRSLSGLILKNNVKAHFQNFPNGVTDFIKSECLNNIGDSSPLIRATVGILITTIASKGELQNWPDLLPKLCSLLDSEDYNTCEGAFGALQKICEDSAEILDSDVLDRPLNIMIPKFLQFFKHSSPKIRSHAVACVNQFIISRTQALMLHIDSFIENLFALAGDEEPEVRKNVCRALVMLLEVRMDRLLPHMHNIVEYMLQRTQDQDENVALEACEFWLTLAEQPICKDVLVRHLPKLIPVLVNGMKYSDIDIILLKGDVEEDETIPDSEQDIRPRFHRSRTVAQQHDEDGIEEEDDDDDEIDDDDTISDWNLRKCSAAALDVLANVYRDELLPHILPLLKELLFHHEWVVKESGILVLGAIAEGCMQGMIPYLPELIPHLIQCLSDKKALVRSITCWTLSRYAHWVVSQPPDTYLKPLMTELLKRILDSNKRVQEAACSAFATLEEEACTELVPYLAYILDTLVFAFSKYQHKNLLILYDAIGTLADSVGHHLNKPEYIQMLMPPLIQKWNMLKDEDKDLFPLLECLSSVATALQSGFLPYCEPVYQRCVNLVQKTLAQAMLNNAQPDQYEAPDKDFMIVALDLLSGLAEGLGGNIEQLVARSNILTLMYQCMQDKMPEVRQSSFALLGDLTKACFQHVKPCIADFMPILGTNLNPEFISVCNNATWAIGEISIQMGIEMQPYIPMVLHQLVEIINRPNTPKTLLENTAITIGRLGYVCPQEVAPMLQQFIRPWCTSLRNIRDNEEKDSAFRGICTMISVNPSGVIQDFIFFCDAVASWINPKDDLRDMFCKILHGFKNQVGDENWRRFSDQFPLPLKERLAAFYGV
B3: sp¦O95373¦IPO7_HUMAN (protein, UniProt O95373 1-1038, looked up)
Importin-7: MDPNTIIEALRGTMDPALREAAERQLNEAHKSLNFVSTLLQITMSEQLDLPVRQAGVIYLKNMITQYWPDRETAPGDISPYTIPEEDRHCIRENIVEAIIHSPELIRVQLTTCIHHIIKHDYPSRWTAIVDKIGFYLQSDNSACWLGILLCLYQLVKNYEYKKPEERSPLVAAMQHFLPVLKDRFIQLLSDQSDQSVLIQKQIFKIFYALVQYTLPLELINQQNLTEWIEILKTVVNRDVPNETLQVEEDDRPELPWWKCKKWALHILARLFERYGSPGNVSKEYNEFAEVFLKAFAVGVQQVLLKVLYQYKEKQYMAPRVLQQTLNYINQGVSHALTWKNLKPHIQGIIQDVIFPLMCYTDADEELWQEDPYEYIRMKFDVFEDFISPTTAAQTLLFTACSKRKEVLQKTMGFCYQILTEPNADPRKKDGALHMIGSLAEILLKKKIYKDQMEYMLQNHVFPLFSSELGYMRARACWVLHYFCEVKFKSDQNLQTALELTRRCLIDDREMPVKVEAAIALQVLISNQEKAKEYITPFIRPVMQALLHIIRETENDDLTNVIQKMICEYSEEVTPIAVEMTQHLAMTFNQVIQTGPDEEGSDDKAVTAMGILNTIDTLLSVVEDHKEITQQLEGICLQVIGTVLQQHVLEFYEEIFSLAHSLTCQQVSPQMWQLLPLVFEVFQQDGFDYFTDMMPLLHNYVTVDTDTLLSDTKYLEMIYSMCKKVLTGVAGEDAECHAAKLLEVIILQCKGRGIDQCIPLFVEAALERLTREVKTSELRTMCLQVAIAALYYNPHLLLNTLENLRFPNNVEPVTNHFITQWLNDVDCFLGLHDRKMCVLGLCALIDMEQIPQVLNQVSGQILPAFILLFNGLKRAYACHAEHENDSDDDDEAEDDDETEELGSDEDDIDEDGQEYLEILAKQAGEDGDDEDWEEDDAEETALEGYSTIIDDEDNPVDEYQIFKAIFQTIQNRNPVWYQALTHGLNEEQRKQLQDIATLADQRRAAHESKMIEKHGGYKFSAPVVPSSFNFGGPAPGMN
B4: sp¦Q9H845¦ACAD9_HUMAN (protein, UniProt Q9H845 38-621, looked up)
Complex I assembly factor …: AFAKELFLGKIKKKEVFPFPEVSQDELNEINQFLGPVEKFFTEEVDSRKIDQEGKIPDETLEKLKSLGLFGLQVPEEYGGLGFSNTMYSRLGEIISMDGSITVTLAAHQAIGLKGIILAGTEEQKAKYLPKLASGEHIAAFCLTEPASGSDAASIRSRATLSEDKKHYILNGSKVWITNGGLANIFTVFAKTEVVDSDGSVKDKITAFIVERDFGGVTNGKPEDKLGIRGSNTCEVHFENTKIPVENILGEVGDGFKVAMNILNSGRFSMGSVVAGLLKRLIEMTAEYACTRKQFNKRLSEFGLIQEKFALMAQKAYVMESMTYLTAGMLDQPGFPDCSIEAAMVKVFSSEAAWQCVSEALQILGGLGYTRDYPYERILRDTRILLIFEGTNEILRMYIALTGLQHAGRILTTRIHELKQAKVSTVMDTVGRRLRDSLGRTVDLGLTGNHGVVHPSLADSANKFEENTYCFGRTVETLLLRFGKTIMEEQLVLKRVANILINLYGMTAVLSRASRSIRIGLRNHDHEVLLANTFCVEAYLQNLFSLSQLDKYAPENLDEQIKKVSQQILEKRAYICAHPLDRTC
B5: sp¦P41252¦SYIC_HUMAN (protein, UniProt P41252 1-1262, looked up)
Isoleucine--tRNA ligase, …: MLQQVPENINFPAEEEKILEFWTEFNCFQECLKQSKHKPKFTFYDGPPFATGLPHYGHILAGTIKDIVTRYAHQSGFHVDRRFGWDCHGLPVEYEIDKTLGIRGPEDVAKMGITEYNNQCRAIVMRYSAEWKSTVSRLGRWIDFDNDYKTLYPQFMESVWWVFKQLYDKGLVYRGVKVMPFSTACNTPLSNFESHQNYKDVQDPSVFVTFPLEEDETVSLVAWTTTPWTLPSNLAVCVNPEMQYVKIKDVARGRLLILMEARLSALYKLESDYEILERFPGAYLKGKKYRPLFDYFLKCKENGAFTVLVDNYVKEEEGTGVVHQAPYFGAEDYRVCMDFNIIRKDSLPVCPVDASGCFTTEVTDFAGQYVKDADKSIIRTLKEQGRLLVATTFTHSYPFCWRSDTPLIYKAVPSWFVRVENMVDQLLRNNDLCYWVPELVREKRFGNWLKDARDWTISRNRYWGTPIPLWVSDDFEEVVCIGSVAELEELSGAKISDLHRESVDHLTIPSRCGKGSLHRISEVFDCWFESGSMPYAQVHYPFENKREFEDAFPADFIAEGIDQTRGWFYTLLVLATALFGQPPFKNVIVNGLVLASDGQKMSKRKKNYPDPVSIIQKYGADALRLYLINSPVVRAENLRFKEEGVRDVLKDVLLPWYNAYRFLIQNVLRLQKEEEIEFLYNENTVRESPNITDRWILSFMQSLIGFFETEMAAYRLYTVVPRLVKFVDILTNWYVRMNRRRLKGENGMEDCVMALETLFSVLLSLCRLMAPYTPFLTELMYQNLKVLIDPVSVQDKDTLSIHYLMLPRVREELIDKKTESAVSQMQSVIELGRVIRDRKTIPIKYPLKEIVVIHQDPEALKDIKSLEKYIIEELNVRKVTLSTDKNKYGIRLRAEPDHMVLGKRLKGAFKAVMTSIKQLSSEELEQFQKTGTIVVEGHELHDEDIRLMYTFDQATGGTAQFEAHSDAQALVLLDVTPDQSMVDEGMAREVINRIQKLRKKCNLVPTDEITVYYKAKSEGTYLNSVIESHTEFIFTTIKAPLKPYPVSPSDKVLIQEKTQLKGSELEITLTRGSSLPGPACAYVNLNICANGSEQGGVLLLENPKGDNRLDLLKLKSVVTSIFGVKNTELAVFHDETEIQNQTDLLSLSGKTLCVTAGSAPSLINSSSTLLCQYINLQLLNAKPQECLMGTVGTLLLENPLGQNGLTHQGLLYEAAKVFGLRSRKLKLFLNETQTQEITEDIPVKTLNMKTVYVSVLPTTADF
B6: sp¦Q9Y2X3¦NOP58_HUMAN (protein, UniProt Q9Y2X3 1-529, looked up)
Nucleolar protein 58: MLVLFETSVGYAIFKVLNEKKLQEVDSLWKEFETPEKANKIVKLKHFEKFQDTAEALAAFTALMEGKINKQLKKVLKKIVKEAHEPLAVADAKLGGVIKEKLNLSCIHSPVVNELMRGIRSQMDGLIPGVEPREMAAMCLGLAHSLSRYRLKFSADKVDTMIVQAISLLDDLDKELNNYIMRCREWYGWHFPELGKIISDNLTYCKCLQKVGDRKNYASAKLSELLPEEVEAEVKAAAEISMGTEVSEEDICNILHLCTQVIEISEYRTQLYEYLQNRMMAIAPNVTVMVGELVGARLIAHAGSLLNLAKHAASTVQILGAEKALFRALKSRRDTPKYGLIYHASLVGQTSPKHKGKISRMLAAKTVLAIRYDAFGEDSSSAMGVENRAKLEARLRTLEDRGIRKISGTGKALAKTEKYEHKSEVKTYDPSGDSTLPTCSKKRKIEQVDKEDEITEKKAKKAKIKVKVEEEEEEKVAEEEETSVKKKKKRGKKKHIKEEPLSEEEPCTSTAIASPEKKKKKKKKRENED
B7: sp¦Q13637¦RAB32_HUMAN (protein, UniProt Q13637 2-225, looked up)
Ras-related protein Rab-32: AGGGAGDPGLGAAAAPAPETREHLFKVLVIGELGVGKTSIIKRYVHQLFSQHYRATIGVDFALKVLNWDSRTLVRLQLWDIAGQERFGNMTRVYYKEAVGAFVVFDISRSSTFEAVLKWKSDLDSKVHLPNGSPIPAVLLANKCDQNKDSSQSPSQVDQFCKEHGFAGWFETSAKDNINIEEAARFLVEKILVNHQSFPNEENDVDKIKLDQETLRAENKSQCC
B8: sp¦P30048¦PRDX3_HUMAN (protein, UniProt P30048 62-256, looked up)
Thioredoxin-dependent …: APAVTQHAPYFKGTAVVNGEFKDLSLDDFKGKYLVLFFYPLDFTFVCPTEIVAFSDKANEFHDVNCEVVAVSVDSHFSHLAWINTPRKNGGLGHMNIALLSDLTKQISRDYGVLLEGSGLALRGLFIIDPNGVIKHLSVNDLPVGRSVEETLRLVKAFQYVETHGEVCPANWTPDSPTIKPSPAASKEYFQKVNQ
B9: sp¦P23381¦SYWC_HUMAN (protein, UniProt P23381 2-471, looked up)
Tryptophan--tRNA ligase, …: PNSEPASLLELFNSIATQGELVRSLKAGNASKDEIDSAVKMLVSLKMSYKAAAGEDYKADCPPGNPAPTSNHGPDATEAEEDFVDPWTVQTSSAKGIDYDKLIVRFGSSKIDKELINRIERATGQRPHHFLRRGIFFSHRDMNQVLDAYENKKPFYLYTGRGPSSEAMHVGHLIPFIFTKWLQDVFNVPLVIQMTDDEKYLWKDLTLDQAYSYAVENAKDIIACGFDINKTFIFSDLDYMGMSSGFYKNVVKIQKHVTFNQVKGIFGFTDSDCIGKISFPAIQAAPSFSNSFPQIFRDRTDIQCLIPCAIDQDPYFRMTRDVAPRIGYPKPALLHSTFFPALQGAQTKMSASDPNSSIFLTDTAKQIKTKVNKHAFSGGRDTIEEHRQFGGNCDVDVSFMYLTFFLEDDDKLEQIRKDYTSGAMLTGELKKALIEVLQPLIAEHQARRKEVTDEIVKEFMTPRKLSFDFQ

Each molecule was assayed on human HL60 cells (assay: SWATH-MS proteomics, differential protein representation, akirin2 KO vs WT HL60 cells). Conditions: akirin2 KO vs WT HL60 cells; sheet "Under-represented in KO".
Format: cell-based
Summary of the method: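 Three biological replicates per genotype; 150 µg protein FASP/trypsin digested; IDA library (3 µg digest); SWATH variable windows, 5 µg/sample, 3.6 s cycle; gradient 5–30% B 120 min then 30–60% B 15 min; 1% global FDR; TAS normalization.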

Going from B1 to B2, the “Fold Change” value rises from 0.6378 to 0.6517.

Going from B3 to B4, the “Fold Change” value rises from 0.28 to 0.6441.

Going from B5 to B6, the “Fold Change” value rises from 0.645 to 0.6507.

Compared with B7, B8 is lower in “Fold Change” value: 0.6519 for the first, 0.6339 for the second.

B9 was tested, and the “Fold Change” value was 0.6341.

B1 and B2 are within 0.2 log units of each other in “Log (Fold Change)” value: -0.1953 for the first, -0.186 for the second.

Compared with B3, B4 is higher in “Log (Fold Change)” value: -0.5528 for the first, -0.191 for the second.

B5 and B6 are within 0.2 log units of each other in “Log (Fold Change)” value: -0.1904 for the first, -0.1866 for the second.

B7 and B8 are within 0.2 log units of each other in “Log (Fold Change)” value: -0.1858 for the first, -0.198 for the second.

B9 was tested, and the “Log (Fold Change)” value was -0.1979.
